Measured values published in the supplement of paper PMC12042874.
± gives the uncertainty stated by the source.

experiment: amyloid nucleation score (Sup35N fusion, yeast selection) (log enrichment); library NNK1; higher = more nucleation; inactive = no reads after selection
Procedure, shortened: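 The nucleation score is the DiMSum log enrichment of output over input reads, centred on the mode score of non-aggregating sequences. Only sequences with 100 or more input reads were scored, using Illumina sequencing of input and output plasmid inserts. Psi-negative yeast expressing Sup35N fused to peptides of 20 random codons were induced 24 hours with 100 μM copper sulfate and grown 7 days at 30°C on medium lacking adenine and uracil.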

MRHRCGHRSVPG and MRLCPEPASKSDMPFSRDLR are within error of each other in amyloid nucleation score: -0.118 ± 0.68 for the first, 0.268 ± 1.4 for the second.

MRLMVGYRRCFASLVKNVCT and MRLNYGNITLSFGSPMMQTI are within error of each other in amyloid nucleation score: -0.963 ± 1.8 for the first, 0.682 ± 0.15 for the second.

Compared with MRMRKNEHYE, MRQQGWYTESTFVMCQFTGG is higher in amyloid nucleation score: 0.476 ± 0.46 for the first, 2.04 ± 0.088 for the second.

MRVHFLE and MRVTFHYFS are within error of each other in amyloid nucleation score: 0.136 ± 0.41 for the first, -0.434 ± 1.7 for the second.

Compared with MRVWKSILFDRSFFVFGLWR, MSDSRIVTVIVRRQPVSQRS is higher in amyloid nucleation score: -0.543 ± 0.6 for the first, 1.33 ± 0.84 for the second.

MSFTSAY and MSGWG are within error of each other in amyloid nucleation score: -0.238 ± 0.56 for the first, 0.167 ± 0.27 for the second.

Going from MSKINFFVNMAGL to MSLDGD, the amyloid nucleation score falls from 5.19 ± 0.062 to 0.868 ± 0.29.

MSLYTDNWGNKGRTSLNYSS and MSLYYPSFDQPITKRVRLFF are within error of each other in amyloid nucleation score: 0.455 ± 0.51 for the first, -0.82 ± 1.4 for the second.

MSMMLTRIAHTLSESWRTHW and MSQAALLVLGNRFGNNDIVG are within error of each other in amyloid nucleation score: -0.09 ± 0.97 for the first, -0.078 ± 0.44 for the second.

MSQDR and MSSRQVPGFLMIGSLFARCI are within error of each other in amyloid nucleation score: -0.061 ± 0.94 for the first, -0.639 ± 0.55 for the second.

MSSVLFYYGFNTFEYSDMYM and MSSVNWYANDLLSVLGIGSR are within error of each other in amyloid nucleation score: -0.15 ± 0.33 for the first, -0.202 ± 1.2 for the second.

MSYMCLNRYILVGYCWVQTT and MTVSRNFDYAKLCEWRRVNR are within error of each other in amyloid nucleation score: 0.312 ± 0.66 for the first, -0.371 ± 0.37 for the second.

MVCLVVSFGQCASTVFLFHL and MVCTYNVRCIEMETRYPRSR are within error of each other in amyloid nucleation score: 1.83 ± 0.49 for the first, 0.791 ± 0.97 for the second.

Going from MVDPRVTS to MVIHP, the amyloid nucleation score rises from -0.86 ± 1.1 to 3.57 ± 0.087.

MVIPFFLSSLLSL and MVKRRV are within error of each other in amyloid nucleation score: -0.835 ± 0.7 for the first, -0.232 ± 1.2 for the second.

MVSDMLVKATVHPMYFMTLW and MVTDPWISTLSSFHLWGGFM are within error of each other in amyloid nucleation score: -0.34 ± 0.32 for the first, -0.318 ± 0.93 for the second.

MVTEDEERMANLSWHESGAY and MVTGTSHPLQYMLSGSSTKY are within error of each other in amyloid nucleation score: -1.07 ± 0.74 for the first, -0.436 ± 0.45 for the second.

Going from MVVVIIYL to MVYLGECCITFYSFNSYRVM, the amyloid nucleation score rises from 1.53 ± 0.35 to 4.55 ± 0.053.

Going from MWGARLRVWPGYERLSAFNH to MWGPHCTRSTTTLVPRARKG, the amyloid nucleation score rises from -0.552 ± 0.44 to 0.468 ± 0.46.

MWSGDDCSFNDFCYVCDFCK and MYCFLAKDLRVTEKFWRRGS are within error of each other in amyloid nucleation score: -0.1 ± 0.32 for the first, -0.448 ± 0.64 for the second.

MYINGWYWTDGFIVNYQWMG and MYRMFRSFKFEWYCELWVLS are within error of each other in amyloid nucleation score: 0.626 ± 0.55 for the first, -0.125 ± 0.5 for the second.

NADCVTMVYSKLVWLPVEDT and NAFNHFYPTQPFLVQDCWRR are within error of each other in amyloid nucleation score: 0.458 ± 0.57 for the first, 0.605 ± 0.72 for the second.

NALILRGLVCLSWKLELTHF and NARWV are within error of each other in amyloid nucleation score: -0.866 ± 1.9 for the first, 0.613 ± 0.38 for the second.

Compared with NARYYYQSAIADVI, NCECVFIPMKEPGFYR is lower in amyloid nucleation score: 0.64 ± 0.29 for the first, -0.357 ± 0.63 for the second.

First: NCIGMFAIDLTKDQFRGDFR
Second: NCLCIMSPCLLPCWEWVSYR
The amyloid nucleation score of the first is lower: 2.73 ± 0.31 for the first, 5.834 ± 0.055 for the second.

NCLNAMVWSLLMLTDHLAPQ and NCRFRVVVRKSGTLLPVWVP are within error of each other in amyloid nucleation score: -0.157 ± 0.72 for the first, 0.542 ± 1 for the second.

NCVTELYDLRGILVRNLCSG and NCVTTNIGFN are within error of each other in amyloid nucleation score: -0.044 ± 0.21 for the first, 0.124 ± 0.9 for the second.

NCYSF and NDEQAVQFNIGETGVSYCFL are within error of each other in amyloid nucleation score: 0.055 ± 0.29 for the first, 0.162 ± 0.77 for the second.

Going from NDFLNSFLCPYYIIPDTGRI to NDFYVLNASFSSRHSYAIRH, the amyloid nucleation score rises from -1.04 ± 0.44 to 1.1 ± 0.3.

Compared with NDHNNLWVNFVGT, NDNSVTILVCARVSTNGIFD is higher in amyloid nucleation score: 0.575 ± 0.6 for the first, 3.38 ± 0.11 for the second.

First: NDVRYLLDMDLLASSADYFM
Second: NELMSYVWQDKPRKYRYLF
The amyloid nucleation score of the first is lower: -0.732 ± 1.1 for the first, 1.2 ± 0.13 for the second.

NESGSARFSPVDSYGFGSGC and NEWVCLS are within error of each other in amyloid nucleation score: -0.894 ± 0.75 for the first, -0.179 ± 0.36 for the second.

First: NFACVFTSTSRMCRH
Second: NFAYGVNYLSAVKGCFTFAR
The amyloid nucleation score of the first is higher: 3.85 ± 0.1 for the first, -0.206 ± 1.5 for the second.

Going from NFGVSSNLCGGIWIYW to NFIFVR, the amyloid nucleation score falls from 4.74 ± 0.074 to 0.706 ± 0.53.

First: NFLIDTYCVNSFNVTL
Second: NGFNKSRAQWFGSVSCSPEG
The amyloid nucleation score of the first is higher: 2.67 ± 0.17 for the first, 0.174 ± 1.5 for the second.

NGFPTNELLFPALKVCNSRV and NGIMKIEKYG are within error of each other in amyloid nucleation score: 0.945 ± 1.1 for the first, 0.312 ± 0.79 for the second.

NGKDFWMSGRYAYVSMHFDR and NGLCLDDIVRLFVIITSVGP are within error of each other in amyloid nucleation score: 1.13 ± 0.31 for the first, 0.821 ± 1.1 for the second.

NGRCKYLRQNIFSVLLIMRR and NHFFCGLGNYLSAVFIVIRK are within error of each other in amyloid nucleation score: 0.324 ± 1 for the first, -0.159 ± 1.4 for the second.

Going from NHLVG to NHMFPMVVTYLWSCFIIGSV, the amyloid nucleation score rises from 0.526 ± 1.4 to 2.42 ± 0.37.

First: NIGVCQIFLDTGMGISVFLN
Second: NIGYSLAVMSAMMLLHFNFG
The amyloid nucleation score of the first is higher: 6.06 ± 0.08 for the first, 2.95 ± 0.082 for the second.

NIINLHYKYLVADVWGLKMF and NIKEKG are within error of each other in amyloid nucleation score: -0.008 ± 0.93 for the first, 0.635 ± 0.44 for the second.

Going from NILKNTLAFSVYLISLPLHV to NINPHLLTISFHWLRPQLAP, the amyloid nucleation score falls from 1.82 ± 0.1 to -0.745 ± 1.7.

NKFGQSAGYLSTFACAVGIG and NKGALRLRFYGIFEVECVVE are within error of each other in amyloid nucleation score: 0.595 ± 0.39 for the first, 1.09 ± 0.4 for the second.

Compared with NKNMSNKFVSIMQKFFSIDG, NKTMGMKSYFLGNIFYMYGW is higher in amyloid nucleation score: 2.72 ± 0.13 for the first, 5.215 ± 0.046 for the second.

NKYNSYKKNYPKRIDWSGLN and NKYQLHMILKGFQGSAYWSV are within error of each other in amyloid nucleation score: -0.983 ± 1.4 for the first, -0.453 ± 0.81 for the second.

NLAGI and NLCRSNTRVQNAKKCAL are within error of each other in amyloid nucleation score: 0.716 ± 0.88 for the first, -0.168 ± 0.26 for the second.

Compared with NLFLMLVDLVSLGTTI, NLGMALRSCMTSTHSVSMW is lower in amyloid nucleation score: 2.08 ± 0.51 for the first, 0.433 ± 0.47 for the second.

Going from NLHVQGVTRNGC to NLIWMVKYCYIIFRIPTTCL, the amyloid nucleation score falls from 3.84 ± 0.076 to 1.77 ± 0.42.

Going from NLKCF to NLLFAVMLVFSRVQVVFNNG, the amyloid nucleation score falls from 0.905 ± 0.47 to -0.355 ± 0.25.

NLQVKFVVYIMPLQKD and NLSCIHGLYYGSRLVSGLYQ are within error of each other in amyloid nucleation score: 0.747 ± 0.44 for the first, 0.15 ± 0.71 for the second.

NLSTSMSRREIMQQHQHRRL and NLTANVLKVMSRHCNGFWIF are within error of each other in amyloid nucleation score: 0.594 ± 0.64 for the first, 0.29 ± 0.46 for the second.

NLTWRGSRDTFECYVDGA and NLYVNN are within error of each other in amyloid nucleation score: -0.186 ± 0.47 for the first, -0.623 ± 1 for the second.

Compared with NMGIKVLSKYNVIYYSAGTP, NMINLMGTKVDMYCRRVRGI is lower in amyloid nucleation score: 8.343 ± 0.048 for the first, -1.53 ± 0.84 for the second.

NMQTYGGLKE and NMTVITVVSWLCFVRRTHNA are within error of each other in amyloid nucleation score: 0.116 ± 0.71 for the first, -1.06 ± 0.82 for the second.

NNGGASVGFWRMPCHWTRMH and NNGKSIPFPGGARKVSLGSG are within error of each other in amyloid nucleation score: -0.371 ± 0.59 for the first, 0.087 ± 0.26 for the second.

Compared with NNIFGLSIYKYCQGRYCNCS, NNKGSLSPGNLDTSDESEFS is lower in amyloid nucleation score: 8.226 ± 0.055 for the first, 0.652 ± 0.29 for the second.

Compared with NNLWCSFS, NNMLILFTCGFYYKVYSPVQ is higher in amyloid nucleation score: -0.577 ± 0.43 for the first, 3.18 ± 0.17 for the second.

NNMYTNVRVLKGRCLWVY and NNVNEVWWA are within error of each other in amyloid nucleation score: 0.376 ± 0.28 for the first, 0.249 ± 0.69 for the second.

NPAEL and NPCWTVYLEFL are within error of each other in amyloid nucleation score: 0.222 ± 0.54 for the first, 0.186 ± 0.27 for the second.

For MRRHLGHLTLESGNHGCLQA, the amyloid nucleation score was “inactive”.
For MTRVNLKDKHNVRILSFN, the amyloid nucleation score was “inactive”.
For NEFKFKVRTKEFRFEVCLKY, the amyloid nucleation score was “inactive”.
In the case of NFDNYVLLPLALTC, the amyloid nucleation score is reported as “inactive”.
In the case of NFIQID, the amyloid nucleation score is reported as “inactive”.
With NISCDRGMLG the amyloid nucleation score was “inactive”.
In the case of NKNSGSRHHHVTYQLTPGER, the amyloid nucleation score is reported as “inactive”.
In the case of NKTVVLDHPHVCFPGSRSHL, the amyloid nucleation score is reported as “inactive”.
With NMFAWV the amyloid nucleation score was “inactive”.
For NNQSTGWCETN, the amyloid nucleation score was “inactive”.
